{"source": "the RNAGym collection of RNA variant scans (doi:10.7554/elife.80360)", "parents": {"B1": {"name": "HDV Ribozyme (parent)", "chain": "GGCCGGCAUGGUCCCAGCCUCCUCGCUGGCGCCGGCUGGGCAACAUUCCGAGGGGACCGUCCCCUCGGUAAUGGCGAAUGGGACCCA"}}}
{"variants_of": "B1", "test": "self-cleavage, relative activity (ratio to wild type); higher = more cleavage; co-transcriptional"}
{"variant": "G38A U47C", "self-cleavage": 0.0767}
{"variant": "G38C A43U", "self-cleavage": 0.116}
{"variant": "G38C A43G", "self-cleavage": 0.219}
{"variant": "U37G C84A", "self-cleavage": 0.161}
{"variant": "G38U G52A", "self-cleavage": 0.305}
{"variant": "G38U C49A", "self-cleavage": 0.264}
{"variant": "G38U C49G", "self-cleavage": 0.0739}
{"variant": "G38U C84U", "self-cleavage": 0.0821}
{"variant": "U37G C86A", "self-cleavage": 0.185}
{"variant": "G38U C85G", "self-cleavage": 0.295}
{"variant": "G38A C62A", "self-cleavage": 0.0733}
{"variant": "U37G G52U", "self-cleavage": 0.198}
{"variant": "G38U G54A", "self-cleavage": 0.227}
{"variant": "G38U G54U", "self-cleavage": 0.325}
{"variant": "U37G U79C", "self-cleavage": 0}
{"variant": "U37G U79G", "self-cleavage": 0.115}
{"variant": "G38A C58U", "self-cleavage": 0.175}
{"variant": "U37G G73C", "self-cleavage": 0.0791}
{"variant": "U37G G73A", "self-cleavage": 0}
{"variant": "G38U G73A", "self-cleavage": 0.149}
{"variant": "G38U G73C", "self-cleavage": 0.169}
{"variant": "G38U G73U", "self-cleavage": 0.146}
{"variant": "G38C A87U", "self-cleavage": 0.252}
{"variant": "G38C A87G", "self-cleavage": 0.155}
{"variant": "G38U C75U", "self-cleavage": 0.163}
{"variant": "G38U C75G", "self-cleavage": 0.0707}
{"variant": "G38U U72G", "self-cleavage": 0.145}
{"variant": "G38U U72C", "self-cleavage": 0.0978}
{"variant": "G38C C48A", "self-cleavage": 0.104}
{"variant": "G38C C48G", "self-cleavage": 0.133}
{"variant": "G38C C48U", "self-cleavage": 0.161}
{"variant": "G38A C85G", "self-cleavage": 0.157}
{"variant": "G38C C44G", "self-cleavage": 0.222}
{"variant": "G39A C57U", "self-cleavage": 0.665}
{"variant": "G39A C57A", "self-cleavage": 0.41}
{"variant": "G39A C48U", "self-cleavage": 0.504}
{"variant": "G39A C48A", "self-cleavage": 0.609}
{"variant": "G39A C48G", "self-cleavage": 0.507}
{"variant": "G38A A77C", "self-cleavage": 0.0354}
{"variant": "G38U G67C", "self-cleavage": 0.197}
{"variant": "G38C U79A", "self-cleavage": 0.151}
{"variant": "G38C U79G", "self-cleavage": 0}
{"variant": "U37G G82C", "self-cleavage": 0.128}
{"variant": "U37G G82U", "self-cleavage": 0.0773}
{"variant": "U37G G40C", "self-cleavage": 0.0519}
{"variant": "U37G G40A", "self-cleavage": 0.302}
{"variant": "G38C A78U", "self-cleavage": 0.0308}
{"variant": "U37G G38C", "self-cleavage": 0.192}
{"variant": "G38A G82U", "self-cleavage": 0.0405}
{"variant": "G38U", "self-cleavage": 0.255}
{"variant": "G38A", "self-cleavage": 0.157}
{"variant": "G38C", "self-cleavage": 0.239}
{"variant": "G38A A51U", "self-cleavage": 0.268}
{"variant": "G38A A51C", "self-cleavage": 0.212}
{"variant": "G38C C57G", "self-cleavage": 0.356}
{"variant": "G38C C86A", "self-cleavage": 0.136}
{"variant": "G38C C86U", "self-cleavage": 0.145}
{"variant": "G39A C62U", "self-cleavage": 0.508}
{"variant": "G38C G59A", "self-cleavage": 0.199}
{"variant": "G38C G59U", "self-cleavage": 0.233}
{"variant": "G38C G55C", "self-cleavage": 0.46}
{"variant": "G38C G55A", "self-cleavage": 0.124}
{"variant": "G38A G80A", "self-cleavage": 0.0372}
{"variant": "G38A G80U", "self-cleavage": 0.156}
{"variant": "G38U C41A", "self-cleavage": 0.407}
{"variant": "G38U C41U", "self-cleavage": 0.623}
{"variant": "G38C U65A", "self-cleavage": 0.341}
{"variant": "G38C C49U", "self-cleavage": 0.277}
{"variant": "U37G G39U", "self-cleavage": 0}
{"variant": "G38A G81U", "self-cleavage": 0.176}
{"variant": "G38A G81C", "self-cleavage": 0.0712}
{"variant": "G39A G50C", "self-cleavage": 0.504}
{"variant": "G38A C57U", "self-cleavage": 0.211}
{"variant": "G38A C57G", "self-cleavage": 0.224}
{"variant": "G38A C57A", "self-cleavage": 0.128}
{"variant": "G38C U47G", "self-cleavage": 0.225}
{"variant": "G38A U72G", "self-cleavage": 0.0415}
{"variant": "G38A U72A", "self-cleavage": 0.155}
{"variant": "G38A C84A", "self-cleavage": 0.185}
{"variant": "G38A A56G", "self-cleavage": 0.108}
{"variant": "U37G C63U", "self-cleavage": 0.151}
{"variant": "U37G C63G", "self-cleavage": 0.0615}
{"variant": "G38A G53U", "self-cleavage": 0.0567}
{"variant": "G38A G53C", "self-cleavage": 0.0678}
{"variant": "U37G C85A", "self-cleavage": 0.0875}
{"variant": "U37G A77C", "self-cleavage": 0.158}
{"variant": "U37G A77G", "self-cleavage": 0.0831}
{"variant": "G38U C66U", "self-cleavage": 0.175}
{"variant": "U37G C62U", "self-cleavage": 0.308}
{"variant": "G38U G68U", "self-cleavage": 0.119}
{"variant": "U37G G80A", "self-cleavage": 0.0308}
{"variant": "U37G G80C", "self-cleavage": 0.0449}
{"variant": "U37G G80U", "self-cleavage": 0.203}
{"variant": "G39A C58U", "self-cleavage": 0.443}
{"variant": "G39A C58A", "self-cleavage": 0.475}
{"variant": "G39A C86G", "self-cleavage": 0.534}
{"variant": "G39A C86U", "self-cleavage": 0.513}
{"variant": "G38A C66G", "self-cleavage": 0.109}
{"variant": "G38A C66U", "self-cleavage": 0.128}
{"variant": "G39A A87U", "self-cleavage": 0.531}
{"variant": "G38A C61U", "self-cleavage": 0.0573}
{"variant": "G38C U72G", "self-cleavage": 0}
{"variant": "G38C U72A", "self-cleavage": 0.158}
{"variant": "G39A A78C", "self-cleavage": 0.0563}
{"variant": "G39A A78U", "self-cleavage": 0.201}
{"variant": "G39A A78G", "self-cleavage": 0.131}
{"variant": "G38C G74U", "self-cleavage": 0.0739}
{"variant": "U37G G67U", "self-cleavage": 0.18}
{"variant": "U37G G67C", "self-cleavage": 0.229}
{"variant": "G38A G50U", "self-cleavage": 0.157}
{"variant": "G38A G50A", "self-cleavage": 0.0886}
{"variant": "G39A C49U", "self-cleavage": 0.519}
{"variant": "G38C A51G", "self-cleavage": 0.309}
{"variant": "U37G U65C", "self-cleavage": 0.123}
{"variant": "U37G C57U", "self-cleavage": 0.0405}
{"variant": "G38A G67C", "self-cleavage": 0.113}
{"variant": "U37G C66A", "self-cleavage": 0.199}
{"variant": "U37G C66G", "self-cleavage": 0.135}
{"variant": "G38U G82C", "self-cleavage": 0.218}
{"variant": "G38U G82U", "self-cleavage": 0.129}
{"variant": "G38C U46A", "self-cleavage": 0.101}
{"variant": "G38C U69G", "self-cleavage": 0.356}
{"variant": "G38C U69A", "self-cleavage": 0.095}
{"variant": "G38U U46C", "self-cleavage": 0.135}
{"variant": "G38U U46G", "self-cleavage": 0.0755}
{"variant": "G38C G81A", "self-cleavage": 0}
{"variant": "G38U C57A", "self-cleavage": 0.323}
{"variant": "G38U C57U", "self-cleavage": 0.126}
{"variant": "G38U C57G", "self-cleavage": 0.38}
{"variant": "G39A C44U", "self-cleavage": 0.185}
{"variant": "G38U G53A", "self-cleavage": 0.369}
{"variant": "G38U G53C", "self-cleavage": 0.434}
{"variant": "G38U G53U", "self-cleavage": 0.342}
{"variant": "G39A A51U", "self-cleavage": 0.521}
{"variant": "G39A A51G", "self-cleavage": 0.458}
{"variant": "U37G G68C", "self-cleavage": 0.246}
{"variant": "U37G G68A", "self-cleavage": 0.246}
{"variant": "U37G G68U", "self-cleavage": 0.128}
{"variant": "G38U A78G", "self-cleavage": 0.203}
{"variant": "G38U G55A", "self-cleavage": 0.137}
{"variant": "U37G G74C", "self-cleavage": 0.0361}
{"variant": "G38U C58G", "self-cleavage": 0.306}
{"variant": "G38U C58A", "self-cleavage": 0.164}
{"variant": "U37G C58U", "self-cleavage": 0.0504}
{"variant": "U37G C58A", "self-cleavage": 0.145}
{"variant": "U37G C58G", "self-cleavage": 0.369}
{"variant": "G38U A70C", "self-cleavage": 0.158}
{"variant": "G38U A70G", "self-cleavage": 0.227}
{"variant": "U37G G81A", "self-cleavage": 0}
{"variant": "G38C A70C", "self-cleavage": 0.291}
{"variant": "G38C A70U", "self-cleavage": 0.185}
{"variant": "G38A G39C", "self-cleavage": 0.0923}
{"variant": "G38A G39A", "self-cleavage": 0.0963}
{"variant": "G39A C75G", "self-cleavage": 0.143}
{"variant": "G38C G80U", "self-cleavage": 0.0314}
{"variant": "G38C G80C", "self-cleavage": 0.145}
{"variant": "G38C G80A", "self-cleavage": 0.131}
{"variant": "G38C C75G", "self-cleavage": 0.104}
{"variant": "G38C C75A", "self-cleavage": 0}
{"variant": "G38A C48U", "self-cleavage": 0.115}
{"variant": "G38A C48A", "self-cleavage": 0.121}
{"variant": "G39A A56G", "self-cleavage": 0.509}
{"variant": "U37G G53U", "self-cleavage": 0.157}
{"variant": "G38A A42G", "self-cleavage": 0.095}
{"variant": "G38A A42C", "self-cleavage": 0.148}
{"variant": "G38A A42U", "self-cleavage": 0}
{"variant": "G38C G40C", "self-cleavage": 0.0405}
